Laboratory results taken from article PMC7404976.

Biological target: MBP-Vip3Aa11(200-end), the C-terminal fragment of Vip3A toxin with an N-terminal 6xHis-MBP tag (Bacillus thuringiensis strain C9)
Assay: crystal structure; MBP-Vip3Aa(200-end) 7 mg/mL, hanging drop at 18 °C, 0.1 M sodium acetate pH 4.2, 0.5 M potassium formate, 0.1 M ammonium sulfate, 11% PEG4000; space group P21, four molecules in one asymmetric unit, 3.2 Å

For “MBP-Vip3Aa11(200-end), the C-terminal fragment of Vip3A toxin with an N-terminal 6xHis-MBP tag (domain or fragment)”, the stoichiometry N was 2.
